From article PMC4968227

Molecular target: T1, PARK7, endogenous in SN4741 cells (mouse (endogenous in SN4741)), Q99LX0
T1 chain: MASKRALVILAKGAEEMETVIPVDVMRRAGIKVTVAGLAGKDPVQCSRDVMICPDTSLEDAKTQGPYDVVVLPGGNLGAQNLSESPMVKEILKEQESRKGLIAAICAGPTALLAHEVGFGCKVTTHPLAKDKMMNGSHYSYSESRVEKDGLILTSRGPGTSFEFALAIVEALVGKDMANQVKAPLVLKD
Assay: cross-linking
Conditions: remark: other sources report otherwise

B1: PARK7, endogenous in SN4741 cells, Q99LX0 1-189 (natural protein)
chain: MASKRALVILAKGAEEMETVIPVDVMRRAGIKVTVAGLAGKDPVQCSRDVMICPDTSLEDAKTQGPYDVVVLPGGNLGAQNLSESPMVKEILKEQESRKGLIAAICAGPTALLAHEVGFGCKVTTHPLAKDKMMNGSHYSYSESRVEKDGLILTSRGPGTSFEFALAIVEALVGKDMANQVKAPLVLKD
- stoichiometry N: 2
